Reference: patent US20220298230A1 (ROCKEFELLER UNIVERSITY, published 2022)

Experiments:
FcγRIIIb [1] = molecular target: T1, FcγRIIIb (human, UniProt O75015 17-200); assay: stated in the variant's description; FcγR binding profile in FIG. 22A
T1 construct: also called FcγRIIIa/b (second member)

FcγRIIIa [2] = molecular target: T2, FcγRIIIa (human, UniProt P08637 17-208); assay: as above
T2 construct: also called FcγRIIIa/b (first member)

FcγRIIIb [3] = molecular target: T1, FcγRIIIb; assay: stated in the variant's description; method not given
FcγRIIIa [4] = molecular target: T2, FcγRIIIa; assay: as above

T2 sequence (P08637 17-208 limits assumed): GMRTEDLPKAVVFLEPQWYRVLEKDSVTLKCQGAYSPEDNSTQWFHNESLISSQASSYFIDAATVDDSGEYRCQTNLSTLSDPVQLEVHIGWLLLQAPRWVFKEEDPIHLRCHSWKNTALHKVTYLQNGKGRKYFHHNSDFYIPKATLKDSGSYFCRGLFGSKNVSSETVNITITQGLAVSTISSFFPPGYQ
T1 sequence (O75015 17-200 limits assumed): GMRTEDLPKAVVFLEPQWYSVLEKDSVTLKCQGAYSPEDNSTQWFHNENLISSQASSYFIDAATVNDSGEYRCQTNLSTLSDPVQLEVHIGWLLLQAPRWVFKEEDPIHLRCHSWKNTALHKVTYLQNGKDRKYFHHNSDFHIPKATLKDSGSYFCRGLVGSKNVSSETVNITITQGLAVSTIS

Binder | binding result (FcγRIIIb [1]) | binding result (FcγRIIIa [2]) | binding result (FcγRIIIb [3]) | binding result (FcγRIIIa [4])
3C05_ALIE (antibody) heavy: not shown light: EIVLTQSPATLSLSPGERATLSCRASQSVSSYLAWYQQKPGQAPRLLIYDASKRATGIPARFSGSGSGTDFTLTISSLEPEDFAVYYCQQRSNWLTFGGGTKVELERTVAAPSVFIFPPSDEQLKSGTASVVCLLNNFYPREAKVQWKVDNALQSGNSQESVTEQDSKDSTYSLSSTLTLSKADYEKHKVYACEVTHQGLSSPVTKSFNRGEC | binds | binds | – | –
1A01_ALIE (antibody) heavy: not shown light: DIQMTQSPSSLSASIGDRVTITCRASQSIRNYLNWYQQKPGKAPKLVIYAVSNLQSGVPSRFSGSGSGTDFTLTISSLQPEDLATYYCQQSYSTLPYTFGQGTKVEIKLERADAAPTVSIFPPSSEQLTSGGASVVCFLNNFYPKDINVKWKIDGSERQNGVLNSWTDQDSKDSTYSMSSTLTLTKDEYERHNSYTCEATHKTSTSPIVKSFNRNEC | – | – | binds | binds
Flu1_ALIE (antibody) heavy: not shown light: DIQMTQSPSSLSASVGDRVTITCRTSQSLSSYLHWYQQKPGKAPKLLIYAASSLQSGVPSRFSGSGSGTDFTLTISSLQPEDFATYYCQQSRTFGQGTKVEIKRTVAAPSVFIFPPSDEQLKSGTASVVCLLNNFYPREAKVQWKVDNALQSGNSQESVTEQDSKDSTYSLSSTLTLSKADYEKHKVYACEVTHQGLSSPVTKSFNRGEC | – | – | binds | binds
Flu1_afucosylated (antibody, also called the afucosylated antibody) heavy: not shown light: DIQMTQSPSSLSASVGDRVTITCRTSQSLSSYLHWYQQKPGKAPKLLIYAASSLQSGVPSRFSGSGSGTDFTLTISSLQPEDFATYYCQQSRTFGQGTKVEIKRTVAAPSVFIFPPSDEQLKSGTASVVCLLNNFYPREAKVQWKVDNALQSGNSQESVTEQDSKDSTYSLSSTLTLSKADYEKHKVYACEVTHQGLSSPVTKSFNRGEC | – | – | binds | binds
